Target: Schizochytrium PUFA PKS Orf A protein (carrying nine ACP domains)
Sequence (chain, as listed by the source): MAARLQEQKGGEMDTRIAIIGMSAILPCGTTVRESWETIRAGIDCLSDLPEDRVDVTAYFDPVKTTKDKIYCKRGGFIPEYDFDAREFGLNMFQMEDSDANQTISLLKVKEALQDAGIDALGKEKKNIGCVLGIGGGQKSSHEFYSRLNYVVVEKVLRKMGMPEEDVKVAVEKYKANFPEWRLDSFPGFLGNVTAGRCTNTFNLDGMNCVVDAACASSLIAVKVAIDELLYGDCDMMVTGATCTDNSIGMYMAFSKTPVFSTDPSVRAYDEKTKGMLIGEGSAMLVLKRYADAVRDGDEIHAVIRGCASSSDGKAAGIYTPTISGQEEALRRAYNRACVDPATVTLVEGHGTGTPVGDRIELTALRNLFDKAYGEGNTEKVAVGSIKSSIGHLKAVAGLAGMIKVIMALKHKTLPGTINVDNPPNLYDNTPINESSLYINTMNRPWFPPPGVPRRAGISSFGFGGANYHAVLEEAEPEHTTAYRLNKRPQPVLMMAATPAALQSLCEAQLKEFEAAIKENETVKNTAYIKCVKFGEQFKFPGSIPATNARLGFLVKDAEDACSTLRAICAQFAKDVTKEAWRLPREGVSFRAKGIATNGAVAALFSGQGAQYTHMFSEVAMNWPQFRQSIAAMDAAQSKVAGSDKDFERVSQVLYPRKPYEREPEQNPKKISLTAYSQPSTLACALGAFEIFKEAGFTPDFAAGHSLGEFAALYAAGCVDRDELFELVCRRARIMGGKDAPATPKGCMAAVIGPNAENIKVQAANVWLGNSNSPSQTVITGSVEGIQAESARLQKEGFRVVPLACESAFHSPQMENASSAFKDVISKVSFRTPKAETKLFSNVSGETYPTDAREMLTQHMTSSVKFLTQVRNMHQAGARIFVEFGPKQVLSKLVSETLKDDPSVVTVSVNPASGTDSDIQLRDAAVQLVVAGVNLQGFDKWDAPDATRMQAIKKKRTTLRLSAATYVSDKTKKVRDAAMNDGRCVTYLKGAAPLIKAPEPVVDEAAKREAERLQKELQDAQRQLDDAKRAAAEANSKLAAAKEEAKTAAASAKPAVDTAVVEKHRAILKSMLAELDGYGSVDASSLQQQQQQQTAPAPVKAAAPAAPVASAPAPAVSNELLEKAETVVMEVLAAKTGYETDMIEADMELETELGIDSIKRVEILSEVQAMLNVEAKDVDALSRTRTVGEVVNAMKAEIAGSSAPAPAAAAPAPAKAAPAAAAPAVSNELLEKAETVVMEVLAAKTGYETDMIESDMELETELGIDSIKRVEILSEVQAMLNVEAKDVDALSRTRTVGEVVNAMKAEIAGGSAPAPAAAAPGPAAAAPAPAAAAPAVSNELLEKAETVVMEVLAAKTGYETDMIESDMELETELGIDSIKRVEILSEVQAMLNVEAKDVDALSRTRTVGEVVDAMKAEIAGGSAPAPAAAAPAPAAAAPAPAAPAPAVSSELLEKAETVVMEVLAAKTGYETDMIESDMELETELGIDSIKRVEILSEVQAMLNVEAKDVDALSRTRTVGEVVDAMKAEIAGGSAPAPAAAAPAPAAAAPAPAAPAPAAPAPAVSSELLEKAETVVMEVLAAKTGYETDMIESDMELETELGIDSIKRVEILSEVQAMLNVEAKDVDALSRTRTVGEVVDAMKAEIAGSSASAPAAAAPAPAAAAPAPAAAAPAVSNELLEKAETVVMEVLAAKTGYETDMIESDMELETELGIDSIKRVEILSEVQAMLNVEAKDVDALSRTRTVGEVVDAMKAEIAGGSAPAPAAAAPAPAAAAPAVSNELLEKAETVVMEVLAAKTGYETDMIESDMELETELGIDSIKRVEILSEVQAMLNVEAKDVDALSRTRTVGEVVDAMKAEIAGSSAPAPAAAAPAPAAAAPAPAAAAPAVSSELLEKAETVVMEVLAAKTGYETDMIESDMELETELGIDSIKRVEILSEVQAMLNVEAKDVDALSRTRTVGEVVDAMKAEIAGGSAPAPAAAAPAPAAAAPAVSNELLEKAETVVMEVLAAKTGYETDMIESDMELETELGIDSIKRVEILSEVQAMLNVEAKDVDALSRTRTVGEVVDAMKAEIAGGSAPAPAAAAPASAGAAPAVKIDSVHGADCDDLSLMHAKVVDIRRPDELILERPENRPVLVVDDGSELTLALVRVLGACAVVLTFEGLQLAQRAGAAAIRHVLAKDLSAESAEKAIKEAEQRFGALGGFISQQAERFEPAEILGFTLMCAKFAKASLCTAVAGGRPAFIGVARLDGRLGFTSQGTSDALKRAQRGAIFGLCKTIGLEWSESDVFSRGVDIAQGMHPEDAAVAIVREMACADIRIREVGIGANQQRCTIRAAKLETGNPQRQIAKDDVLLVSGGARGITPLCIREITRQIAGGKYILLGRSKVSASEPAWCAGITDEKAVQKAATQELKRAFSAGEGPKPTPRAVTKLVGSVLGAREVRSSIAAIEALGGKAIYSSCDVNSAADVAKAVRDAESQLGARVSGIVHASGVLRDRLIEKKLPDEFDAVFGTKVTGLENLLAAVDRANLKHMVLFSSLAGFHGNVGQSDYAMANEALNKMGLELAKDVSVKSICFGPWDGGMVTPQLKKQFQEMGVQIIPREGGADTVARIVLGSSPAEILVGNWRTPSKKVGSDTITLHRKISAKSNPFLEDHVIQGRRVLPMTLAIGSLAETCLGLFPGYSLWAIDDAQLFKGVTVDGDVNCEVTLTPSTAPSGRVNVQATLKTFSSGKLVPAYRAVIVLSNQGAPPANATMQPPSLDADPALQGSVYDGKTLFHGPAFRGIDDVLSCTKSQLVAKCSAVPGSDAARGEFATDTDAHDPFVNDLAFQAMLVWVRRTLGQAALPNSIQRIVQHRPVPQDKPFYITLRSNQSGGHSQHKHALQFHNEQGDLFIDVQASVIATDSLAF

B1: sfp PPTase (phosphopantetheine transferase derived from Bacillus subtilis) (protein)
chain: MKIYGIYMDRPLSQEENERFMSFISPEKREKCRRFYHKEDAHRTLLGDVLVRSVISRQYQLDKSDIRFSTQEYGKPCIPDLPDAHFNISHSGRWVICAFDSQPIGIDIEKTKPISLEIAKRFFSKTEYSDLLAKDKDEQTDYFYHLWSMKESFIKQEGKGLSLPLDSFSVRLHQDGQVSIELPDSHSPCYIKTYEVDPGYKMAVCAAHPDFPEDITMVSYEELL
DHA production in E. coli co-expressing the PPTase with Orf A, B*, C (FAME analysis by gas-liquid chromatography): Co-expression of the sfp construct in cells expressing the Orf A, B*, C proteins, under certain conditions, resulted in DHA production.

From patent US20040235127
